Test results: the supplement of paper PMC9170038

Test system: MS2 coat protein
Assay: apparent KD of MS2 coat protein; higher = weaker reporter binding
Settings: Eterna round: R107
How it was run: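 Binding of SNAP-549-labelled MS2 coat protein was measured on designed RNA switches transcribed on-chip from Illumina sequencing clusters. The protein rose in twofold steps from 0.7 or 1.5 nM to 3 µM, with 0.8–1.5 h per step early on and 10–20 min per step later, in 100 mM Tris-HCl pH 7.5, 80 mM KCl, 4 mM MgCl2, without or with constant ligand. Each design's apparent KD is the median of fits to its normalised cluster binding curves.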

[1] = input ligand: theophylline 20 uM
[2] = input ligand: tryptophan 2.4 mM
[3] = input ligand: theophylline 2 mM

Row | Sequence | apparent KD of MS2 coat protein (input ligand: arginine 13.2 mM) [nM] | apparent KD of MS2 coat protein [1] [nM] | apparent KD of MS2 coat protein [2] [nM] | apparent KD of MS2 coat protein (input ligand: none) [nM] | apparent KD of MS2 coat protein [3] [nM]
1 | UCCUCCUCCGCAAGGAGGAGGAGUUGCGAUACCAGCACGGAAACGUGCCCUUGGCAGCGCACAUGAGGAUCACCCAUGUCAUGUU [#1 Exclusion - Theophylline A Attempt #9 (HarryS)] | 18.7 | 23.8 | 16.3 | – | –
2 | UCGAAUGCGGCGGCCGCCACUCGCGGAUAACGAUAGCUUAACAUGAGGAUCACCCAUGUGUCAUGGAGGACCGGGCCCAUACGGU [kmkmullin] | 13.5 | 23.2 | 14.3 | 17 | 18.7
3 | UCGCACAUGAGGAUCACCCAUGUACUAGAUACCAGUGACGCGGUGCACCCUUGGCAGCUGGUGCUGAGUGAUGGUUCCCUCGGCA [Exclusion Theophylline A GF8] | 53.5 | 137 | 112 | – | –
4 | UCGCCCGGGUCGGCCGCCACUGCGGUGAUGUGACAUGAGGAUCACCCAUGUUGUCAUGUGGCACAUAGGACCGGGACCCGGGCGA [Exclusion - Tryptophan B Attempt #4 (HarryS)] | 23.2 | 45.3 | – | – | 40.3
5 | UCGCUCUGGGUGAAUCCCAGAGAUGUGGAAGGAGCGGACGAAAGUCCAGGUAGGUCGCCAUCGAACAUGAGGAUCACCCAUGUAC [Same State - Arginine A (Freestyle 26)] | 42.7 | 77.5 | 46.2 | 46 | 75.6
6 | UCGCUCUGGGUGAAUCCCAGAGAUGUGGAAGGAGCGGAGGAAACUCCAGGUAGGUCGCCAUCGAACAUGAGGAUCACCCAUGUAC [Same State - Arginine A (Freestyle 28)] | 35.6 | 60.7 | 46.4 | 56.8 | 66.4
7 | UCGGAGAAGUCGGCCGCCACUGAACUCUUGUUCUACAUGAGGAUCACCCAUGUUCCUUUGUUUAACAGGACCGGGACUUAUACGA [JR_SSTryptoB_Sub009] | 108 | 283 | – | – | 346
8 | UCGGGCAGAGCGGCCGCCACUGUUUGGCAUGCGGAUGAAGGAACAUGAGGAUCACCCAUGUAGAUUAGGACCGGGCUAGCGGAGA [sscsmullin] | 12.1 | 42.1 | 16.3 | 17.2 | 18.4
9 | UCGUGUGUUUCGGAUACCAGUGAAAUCGAUACAUGAGGAUCACCCAUGUGAGAGGAUGUACACCCUUGGCAGCUGUCUGUAGCGG [asczmullin] | 26.9 | 38 | 38.3 | – | –
10 | UGAAAGUAGGGAAGGAGCGCUACAACAUGAGGAUCACCCAUGUUAUGAGGAUCACCCAUGUGGCAGGUAGGUCGCCCAAAACAUG [Same State Arginine B] | 41.3 | 95.1 | 68 | 77 | 92.7
11 | UGACAUGAGGAUCACCCAUGUUUAGAUGAACGAGGACCGGUACGGCCGCCACUCGAUAAGUGGAAAGAGCGAGGGAUCGCAUGCU [Same State Trp A GF5] | 12.1 | 17.5 | 14.4 | 12.9 | 12.9
12 | UGACAUUGCUCAGAUACCAGACAUGAGGAUCACCCAUGUACCAAGGUAAAGAAAUAACGUGUCCCUUGGCAGCUGAGCAAUGUCU [TheoBX 1 #MS2Left #Theo2] | 10.6 | 14.8 | 10.4 | – | –
13 | UGACAUUGCUCAGAUACCAGACAUGAGGAUCACCCAUGUGCCAACGUACAAAUAAUAAAUGUCCCUUGGCAGCUGAGCAAUGUCU [TheoBX 15 #MS2Left #Theo2] | 16.2 | 19.9 | 11.4 | – | –
14 | UGACGAUACCUGGAUACCAGCGACAUGAGGAUCACCCAUGUAUGAGGAUCAGCCAUGUUAUGCCCUUGGCAGCCACGAAGGUCUU [CSCMULLIN] | 28.9 | 55.4 | 33.1 | – | –
15 | UGAUUGAACGGAAGGAGCGUGAAGAGAGAGAAACAUGAGGAUCACCCAUGUAGAGAGAGAUCACAGGUAGGUCGCCGAGAGAUUG [11.C] | 17.8 | 20.8 | 17.1 | 15 | 21
16 | UGCAUCAUAAUCAUGUUGGUGCUAGGUGAUACCAGCAUCGAAAGAUGCCCUUGGCAGCACCAACAUGAGGAUCACCCAUGUAAUA [(MT)''-(M)'-(T')-(Theo)-(Ms2)_Design1/22_2] | 69.2 | 165 | 27 | – | –
17 | UGCGUACAUGAGGAUCACCCAUGUACUGAAGGAGCGGGAGGCAUCUCAGGUAGGUCGCAGACAUGAGGAUCACCCAUGUAGUGGU [Exclusion Arginine A GF 18] | 16.1 | 44.6 | 26.6 | 26.9 | 38.3
18 | UGGGUAGCAUAGCUUGAUAGCUACACUGAAGGAGCGAGGAUAACCUCAGGUAGGUCGCAGACAUGAGGAUCACCCAUGUAGAUGG [Same State Arginine A GF18] | 63.9 | 359 | 276 | 186 | 231

Row | Sequence | apparent KD of MS2 coat protein (input ligand: arginine 13.2 mM) [nM] | apparent KD of MS2 coat protein [1] [nM] | apparent KD of MS2 coat protein [2] [nM] | apparent KD of MS2 coat protein (input ligand: none) [nM] | apparent KD of MS2 coat protein [3] [nM]
19 | UGUAACAUGAGGAUCACCCAUGUGAGUGAUACCAGAUUAGUAGUAGUCCCUUGGCAGCAUAUUGGGCGAGUGUAUAGUCUAUGCG [Same State - Theophylline A (Freestyle 10)] | 94 | 250 | 205 | – | –
20 | UGUAUGGACUGAAGGAGCGCCUCAAAUAACAUGAGGAUCACCCAUGUGGACAAAGUCCUUGGGCAGGUAGGUCGCAGUCCAUACU [ArgBX 5 #StaticStem #MS2Late] | 49.1 | 82.9 | 82.2 | 72.4 | 92.3
21 | UGUAUGGACUGAAGGAGCGGAAAAUAACCAUGAGGAUCACCCAUGGAAUAGGCGAAAGCCAUCCAGGUAGGUCGCAGUCCAUACU | 23.4 | 32.4 | 31.6 | 31.6 | 36.6
22 | UGUAUGGACUGAAGGAGCGGGUUGAUAAUCUGAGGAUCACCCAGGUAAAAGGCGAAAGCCACCCAGGUAGGUCGCAGUCCAUACU | 23.8 | 38.9 | 36.4 | 34 | 41.8
23 | UGUAUGUGAUCUGAUACCAGAGUGAAUAACCUGAGGAUCACCCUGGUAAGGCGAAAGCCACUCCCUUGGCAGCAGAUCGCAUACU | 121 | 100 | 136 | 136 | 26.6
24 | UGUAUGUGAUCUGAUACCAGUCCAACUGGUAAAACCUGAGGAUCACCCGGGUAAAAUUGGGACCCUUGGCAGCAGAUCGCAUACU | 201 | 285 | 683 | 475 | 26
25 | UGUCAUGGAAACAUGACAGGUUCUACCGGUCGAGGACCGGUACGGCCGCCACUCGAUUGGUGGCACAUGAGGAUCACCCAUGUUA [SS Tryp A #15] | 24.1 | 39.6 | – | – | 30.3
26 | UGUUAUUUCCGAAGGAGCGGGAUACAUGAGGAUCACCCAUGUACAUGAGGAUCAACAUGAACCCAGGUAGGUCGCGGAUUUUGUC [Exclusion Arginine B 3] | 34.1 | 300 | 228 | 405 | 379
27 | UGUUUGGUGCGCGAGUGUUGGAUGAUUGAUACCAGUGAAGAAGAGCGCCCUUGGCAGCGAAUCCUAACAUGAGGAUCACCCAUGU [5.V] | 39.3 | 57.7 | 51.4 | – | –
28 | UUAAUCAUGGAUGAAAACAUUUAUGCAGAAGGAGCGUGAUAAAACACAGGUAGGUCGCUGAAGGGAACAUGAGGAUCACCCAUGU [AstrosSSArgA#17] | 35.9 | 74.5 | 41.3 | 65.1 | 69.5
29 | UUAGCACAUGAGGAUCACCCAUGUCUCGAUACCAGAUAAGUUCCGAUCCCUUGGCAGCGACAAGCUUGCAAACUGCGACUAUUCU [theeternabot_sameState_MS2_Theo_A_42] | 22.2 | 32.2 | 24.8 | – | –
30 | UUAGUAACGACGGCCGCCACUGGAUAUGAACAUGAGGAUCACCCAUGUAGAGAUCCUAGAAUAAACAGGACCGGGUCUGAUAAUA [Exclusion Tryptophane B GF 2] | 17.9 | 21.6 | – | – | 17.3
31 | UUAUAAGUACCGGUCCUCAGAUCCUCAUGACGAGGACCGGUACGGCCGCCACUCGAAACAUGAGGAUCACCCAUGUAAUAAUAUU [Brourdmod07] | 16 | 25.3 | – | – | 23.3
32 | UUAUUUAUAAUGGAUACCAGUAUAAUGGCCGCAAAUCCUGACAUGAGGAUCACCCAUGUAUGCCCUUGGCAGCUGUUAUGGGUUU [XTheo B #23] | 34.7 | 51.2 | 38.7 | – | –
33 | UUCAGCUAGUCGGCCGCCACUACAUGAGGAUCACCCAUGUAGGUCCACACUGCUUCGGCAGUGAGUAGGACCGGGACUAGCUGAG | 7.07 | 15.2 | 15.4 | 9.66 | 10.5
34 | UUCAGCUAGUCGGCCGCCACUACUUGAGGAUCACCCAAGUAAUCCUAACACUGCUUCGGCAGUGGUAGGACCGGGACUAGCUGAG | 8.78 | 12 | 15.1 | 10.9 | 11.5
35 | UUCUUUAAGUCGGCCGCCACUGAAACAUGAGGAUCACCCAUGUAUAUUUGUGUAAAGGUGGAUUACAGGACCGGGACUAUAGUAA [JR_Nu23_ExcTryptoB_Sub024] | 12.1 | 13.6 | – | – | 11.7
36 | UUGUGGCGCUCGGCCGCCACUCCGACAUGAGGAUCACCCAUGUUCUACAUGAGGAUCACCCAUGUGAGGACCGGGAGACACAACC [Exclusion Tryptophan B GF12] | 137 | 102 | 165 | 126 | 134
